The target of the assay is MuSK (wild type, full length, mouse) (mouse) (UniProt Q61006). The assay can be described thus: cell-based or functional assay.
Sequence of UniProt Q61006 (Q61006 22-868): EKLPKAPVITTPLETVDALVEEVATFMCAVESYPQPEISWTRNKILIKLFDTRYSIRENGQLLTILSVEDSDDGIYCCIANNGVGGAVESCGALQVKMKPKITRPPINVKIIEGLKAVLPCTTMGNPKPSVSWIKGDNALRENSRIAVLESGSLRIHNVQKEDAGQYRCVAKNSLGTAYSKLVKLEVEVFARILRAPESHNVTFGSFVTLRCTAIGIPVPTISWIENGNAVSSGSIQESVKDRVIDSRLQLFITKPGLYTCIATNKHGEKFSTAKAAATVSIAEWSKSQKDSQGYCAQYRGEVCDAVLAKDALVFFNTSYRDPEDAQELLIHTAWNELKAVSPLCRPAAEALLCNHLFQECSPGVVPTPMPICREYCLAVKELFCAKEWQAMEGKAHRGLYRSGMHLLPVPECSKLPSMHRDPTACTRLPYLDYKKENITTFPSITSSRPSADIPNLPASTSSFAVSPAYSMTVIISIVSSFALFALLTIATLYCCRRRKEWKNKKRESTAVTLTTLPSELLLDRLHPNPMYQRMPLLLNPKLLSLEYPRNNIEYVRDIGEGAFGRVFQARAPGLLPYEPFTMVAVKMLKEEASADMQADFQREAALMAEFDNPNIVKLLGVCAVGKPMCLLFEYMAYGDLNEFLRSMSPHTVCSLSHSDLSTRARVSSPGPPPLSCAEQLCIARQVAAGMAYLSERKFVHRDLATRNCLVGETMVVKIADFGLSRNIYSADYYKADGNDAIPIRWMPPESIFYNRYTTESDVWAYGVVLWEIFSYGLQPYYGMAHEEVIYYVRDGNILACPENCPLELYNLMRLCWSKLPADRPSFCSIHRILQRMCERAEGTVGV

Substance BMP4 (ligand) gave a transcription of Wnt11 in response to BMP4 (qRT-PCR, primary myotubes), WT response relative to ΔIg3-MuSK response (fold (WT response / ΔIg3-MuSK response)) of 2.2 and a transcriptional response of Dok7 to BMP4 (qRT-PCR, primary myotubes), WT response relative to ΔIg3-MuSK response (fold (WT response / ΔIg3-MuSK response)) of 1.6.
